Reference: PMC9106297, “Structure of a TRAPPII-Rab11 activation intermediate reveals GTPase substrate selection mechanisms” (Science Advances, 2022)

Key:
Experiment in all cases: cryo-EM structure; TRAPPII purified from yeast, incubated with tenfold molar excess of Rab11/Ypt32-7xHis and calf intestine alkaline phosphatase at 4°C overnight (nucleotide-free Rab), complex purified on Calmodulin Sepharose and by SEC; 10 mM tris (pH 8.0), 150 mM NaCl, 0.1% CHAPS, 1 mM Mg acetate, 1 mM dithiothreitol; single-particle cryo-EM
Details in all cases: both partners purified
[1] = target: T1, Bet3 (TRAPP core subunit, in purified TRAPPII) (S. cerevisiae, UniProt P36149 1-193)
T1 construct: Bet3, S. cerevisiae, endogenous; source: endogenous, purified from S. cerevisiae as a subunit of TRAPPII
T1 sequence (looked up): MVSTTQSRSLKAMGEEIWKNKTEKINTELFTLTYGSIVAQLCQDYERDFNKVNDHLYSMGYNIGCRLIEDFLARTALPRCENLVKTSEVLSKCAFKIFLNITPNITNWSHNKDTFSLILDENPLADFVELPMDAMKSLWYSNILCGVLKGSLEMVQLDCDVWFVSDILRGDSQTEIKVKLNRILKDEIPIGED

[2] = target: T2, Trs130 (TRAPPII-specific subunit, in purified TRAPPII) (S. cerevisiae, UniProt Q03660 1-1102)
T2 construct: Trs130, S. cerevisiae, endogenous copy tagged at the C terminus; source: endogenous, purified from S. cerevisiae as a subunit of TRAPPII; not shown: held on Calmodulin Sepharose), C-terminal, kept
T2 sequence (looked up): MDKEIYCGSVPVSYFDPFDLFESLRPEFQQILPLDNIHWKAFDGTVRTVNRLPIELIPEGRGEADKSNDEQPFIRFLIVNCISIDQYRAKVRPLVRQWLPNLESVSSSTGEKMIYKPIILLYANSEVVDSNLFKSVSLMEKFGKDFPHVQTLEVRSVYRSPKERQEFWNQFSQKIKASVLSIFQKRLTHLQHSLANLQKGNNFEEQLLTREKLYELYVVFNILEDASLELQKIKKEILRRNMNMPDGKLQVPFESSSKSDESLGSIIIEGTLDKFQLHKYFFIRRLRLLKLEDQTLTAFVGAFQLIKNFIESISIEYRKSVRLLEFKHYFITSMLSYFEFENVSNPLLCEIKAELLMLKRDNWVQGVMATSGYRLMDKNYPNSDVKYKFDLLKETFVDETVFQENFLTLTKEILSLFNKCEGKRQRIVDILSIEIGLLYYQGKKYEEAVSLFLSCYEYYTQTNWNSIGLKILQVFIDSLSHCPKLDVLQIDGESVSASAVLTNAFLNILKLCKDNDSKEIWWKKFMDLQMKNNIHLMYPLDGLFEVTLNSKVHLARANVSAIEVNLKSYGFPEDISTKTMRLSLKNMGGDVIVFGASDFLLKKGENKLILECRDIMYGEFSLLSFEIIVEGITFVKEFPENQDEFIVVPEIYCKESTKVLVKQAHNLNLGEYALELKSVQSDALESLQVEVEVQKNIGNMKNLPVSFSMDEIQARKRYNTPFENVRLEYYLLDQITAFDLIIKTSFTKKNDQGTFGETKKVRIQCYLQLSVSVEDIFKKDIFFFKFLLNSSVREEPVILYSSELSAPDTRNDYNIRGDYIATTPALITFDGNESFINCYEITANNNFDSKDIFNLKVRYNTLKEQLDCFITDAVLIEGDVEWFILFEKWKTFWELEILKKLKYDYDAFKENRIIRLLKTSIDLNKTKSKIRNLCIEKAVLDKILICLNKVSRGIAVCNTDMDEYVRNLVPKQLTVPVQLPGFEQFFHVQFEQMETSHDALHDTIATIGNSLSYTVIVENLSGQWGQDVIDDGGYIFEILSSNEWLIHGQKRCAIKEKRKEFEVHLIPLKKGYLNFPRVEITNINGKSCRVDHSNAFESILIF

[3] = target: T3, Trs33 (TRAPP core subunit, in purified TRAPPII) (S. cerevisiae, UniProt Q99394 1-268)
T3 construct: Trs33, S. cerevisiae, endogenous; source: endogenous, purified from S. cerevisiae as a subunit of TRAPPII
T3 sequence (looked up): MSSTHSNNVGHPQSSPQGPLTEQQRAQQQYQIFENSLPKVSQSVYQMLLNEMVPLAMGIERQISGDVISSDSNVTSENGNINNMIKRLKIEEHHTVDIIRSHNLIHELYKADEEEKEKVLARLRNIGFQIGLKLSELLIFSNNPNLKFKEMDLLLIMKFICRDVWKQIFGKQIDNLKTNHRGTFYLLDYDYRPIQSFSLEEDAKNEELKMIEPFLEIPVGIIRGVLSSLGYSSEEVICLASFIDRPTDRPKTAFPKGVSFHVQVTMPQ

Measured: binding result

B1: Tca17 (TRAPPII subunit, in purified TRAPPII) (natural protein, S. cerevisiae, UniProt P32613 1-152, looked up)
chain: MSLRPCFVSLIDESDKPILIYVPNEAENEMNDVLKYNVLSNISLDYFESALVEWHSLDSKPLLKSIFQLEGVSVFAMLIKQTGLKIVIGFEQKSLSGADDEFEAINQIFETVRKIYIRVKCNPLLVSGDEKSIIKSLERKFDELFISTEVEL
notes: Tca17, S. cerevisiae, endogenous; source: endogenous, purified from S. cerevisiae as a subunit of TRAPPII
binds: all assays above
